Assay results as given in patent publication US20230139700A1 (BIO THERA SOLUTIONS, published 2023).

T1: hOX40-his (human, UniProt P43489 29-216)
T1 construct: range 1-216; Made in HEK293; The stated range starts at residue 1 (holds the signal peptide of the entry); no cleavage site stated; not shown: his tag
T1 sequence (looked up): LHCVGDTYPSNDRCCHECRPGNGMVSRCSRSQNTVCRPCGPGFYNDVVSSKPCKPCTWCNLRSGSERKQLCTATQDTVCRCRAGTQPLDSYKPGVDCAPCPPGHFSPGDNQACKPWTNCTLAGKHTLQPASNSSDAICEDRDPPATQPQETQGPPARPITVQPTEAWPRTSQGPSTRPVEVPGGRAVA

T2: human OX40 on cells (human, UniProt P43489 29-277)
T2 sequence (looked up): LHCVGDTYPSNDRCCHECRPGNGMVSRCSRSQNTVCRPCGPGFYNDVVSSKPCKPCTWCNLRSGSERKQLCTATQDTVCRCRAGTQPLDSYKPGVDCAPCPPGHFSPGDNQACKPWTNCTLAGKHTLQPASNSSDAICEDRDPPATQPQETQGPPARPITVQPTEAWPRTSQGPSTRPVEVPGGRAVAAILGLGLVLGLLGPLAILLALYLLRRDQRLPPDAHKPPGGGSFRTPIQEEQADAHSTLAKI

B1: Antibody M (antibody, human IgG1, kappa, V domains shown)
VH: QVQLVESGGGVVQPGESLRLSCAASGFTFSSYGMHWVRQAPGKGLEWVAVIWEDGSNQYYADSVKGRFTISRDNSKNTLYLQMNSLRAEDTAVYYCAKDNQDTSPDVGIDYWGQGTLVTVSS
VL: DIQMTQSPSSLSASVGDRVTITCRASQNISPFLNWYQQKPGKAPKLLIYAAVGLQSGVPSRFSGSGSGTDFTLTISSLQPEDFATYYCQQYTDYPLTFGGGTKVEIKR
notes: also called antibody No. 12; anti-OX40 antibody (antibody M)
B2: T + VG (antibody, human IgG1, kappa, V domains shown)
VH: QVQLEESGGGVVQPGESLRLSCAASGFTFSSYGMHWVRQAPGKGLEWVAVISYDGSNQYYADSVKGRFTISRDNSKNTLYLQMNSLRAEDTAVYYCAKDNQDTSPDVGIDYWGQGTLVTVSS
VL: DIQMTQSPSSLSASVGDTVTITCRASQNISPFLNWYQQKPGKAPKLLIYAAVGLQSGVPSRFSGSGSGTDFTLTISSLQPEDFATYYCQQYNSYPLTFGGGTKVEIKR
B3: WEST + VG (antibody, human IgG1, kappa, V domains shown)
VH: QVQLEESGGGVVQPGESLRLSCAASGFTFSSYGMHWVRQAPGKGLEWVAVIWEDGSNQYYADSVKGRFTISRDNSKNTLYLQMNSLRAEDTAVYYCAKDNQDTSPDVGIDYWGQGTLVTVSS
VL: DIQMTQSPSSLSASVGDTVTITCRASQNISPFLNWYQQKPGKAPKLLIYAAVGLQSGVPSRFSGSGSGTDFTLTISSLQPEDFATYYCQQYNSYPLTFGGGTKVEIKR
B4: VH + VGTD (antibody, human IgG1, kappa, V domains shown)
VH: QVQLEESGGGVVQPGESLRLSCAASGFTFSSYGMHWVRQAPGKGLEWVAVISYDGSNQYYADSVKGRFTISRDNSKNTLYLQMNSLRAEDTAVYYCAKDNQDSSPDVGIDYWGQGTLVTVSS
VL: DIQMTQSPSSLSASVGDTVTITCRASQNISPFLNWYQQKPGKAPKLLIYAAVGLQSGVPSRFSGSGSGTDFTLTISSLQPEDFATYYCQQYTDYPLTFGGGTKVEIKR
B5: WEST + TD (antibody, human IgG1, kappa, V domains shown)
VH: QVQLEESGGGVVQPGESLRLSCAASGFTFSSYGMHWVRQAPGKGLEWVAVIWEDGSNQYYADSVKGRFTISRDNSKNTLYLQMNSLRAEDTAVYYCAKDNQDTSPDVGIDYWGQGTLVTVSS
VL: DIQMTQSPSSLSASVGDTVTITCRASQNISPFLNWYQQKPGKAPKLLIYAASSLQSGVPSRFSGSGSGTDFTLTISSLQPEDFATYYCQQYTDYPLTFGGGTKVEIKR
B6: T + TD (antibody, human IgG1, kappa, V domains shown)
VH: QVQLEESGGGVVQPGESLRLSCAASGFTFSSYGMHWVRQAPGKGLEWVAVISYDGSNQYYADSVKGRFTISRDNSKNTLYLQMNSLRAEDTAVYYCAKDNQDTSPDVGIDYWGQGTLVTVSS
VL: DIQMTQSPSSLSASVGDTVTITCRASQNISPFLNWYQQKPGKAPKLLIYAASSLQSGVPSRFSGSGSGTDFTLTISSLQPEDFATYYCQQYTDYPLTFGGGTKVEIKR
B7: T + VGL + TD (antibody, human IgG1, kappa, V domains shown)
VH: QVQLEESGGGVVQPGESLRLSCAASGFTFSSYGMHWVRQAPGKGLEWVAVISYDGSNQYYADSVKGRFTISRDNSKNTLYLQMNSLRAEDTAVYYCAKDNQDTSPDVGIDYWGQGTLVTVSS
VL: DIQMTQSPSSLSASVGDTVTITCRASQNISPFLNWYQQKPGKAPKLLIYAAVGLQSGVPSRFSGSGSGTDFTLTISSLQPEDFATYYCQQYTDYPLTFGGGTKVEIKR
B8: WEST + VL (antibody, human IgG1, kappa, V domains shown)
VH: QVQLEESGGGVVQPGESLRLSCAASGFTFSSYGMHWVRQAPGKGLEWVAVIWEDGSNQYYADSVKGRFTISRDNSKNTLYLQMNSLRAEDTAVYYCAKDNQDTSPDVGIDYWGQGTLVTVSS
VL: DIQMTQSPSSLSASVGDTVTITCRASQNISPFLNWYQQKPGKAPKLLIYAASSLQSGVPSRFSGSGSGTDFTLTISSLQPEDFATYYCQQYNSYPLTFGGGTKVEIKR

target: T1, hOX40-his; assay: BIACORE, antibody on the probe, 20 nM OX40-his
Text: (§1) Table 10 illustrates the CDRs of eight full antibodies containing these amino acid mutations, and the rest of the sequences are the same as those of antibody-F23-32K. […] The sequences of the anti-OX40 antibody (antibody M) are shown in Table 12; wherein, the expression cells used for the antibodies above (including antibody M) are CHO-S cells, and the method for preparing the antibody M-KF is as follows: the antibody M was identical to the antibody M-KF in terms of amino acid sequence and was expressed by the CHO cell line in which the fut8 gene was knocked out (the content of fucose in antibody M-KF was about 0%).

Kd | fold higher affinity than 11D4 | fold higher affinity than OX40mAb24 | fold increase of affinity (against antibody-F23-32K) | koff | kon | Binder
0.16 nM | ~9 fold | ~21 fold | ~70 fold | 9.77e-05 s⁻¹ | 610000 M⁻¹ s⁻¹ | B1
4.54 nM |  |  |  | 0.00133 s⁻¹ | 292000 M⁻¹ s⁻¹ | B2
0.77 nM |  |  |  | 0.000348 s⁻¹ | 452000 M⁻¹ s⁻¹ | B3
0.565 nM |  |  |  | 0.000243 s⁻¹ | 431000 M⁻¹ s⁻¹ | B4
0.653 nM |  |  |  | 0.000321 s⁻¹ | 491000 M⁻¹ s⁻¹ | B5
5.01 nM |  |  |  | 0.00139 s⁻¹ | 278000 M⁻¹ s⁻¹ | B6
0.266 nM |  |  |  | 0.000119 s⁻¹ | 448000 M⁻¹ s⁻¹ | B7
1.93 nM |  |  |  | 0.000714 s⁻¹ | 371000 M⁻¹ s⁻¹ | B8

target: T2, human OX40 on cells; assay: cell-based or functional assay

NFκB reporter in Jurkat-hOX40-NFκB-2 cells with Raji cells, activation peak against 11D4 | Binder
~2.5 fold | B1

target: T2, human OX40 on cells; assay: flow cytometry (MFI) on Jurkat cells overexpressing OX40, antibody titration; the unit nM comes from the legend paragraph 95
Text: as §1

EC50 | Binder
1.2 nM | B1

target: T2, human OX40 on cells; assay: flow cytometry (MFI) on Jurkat cells overexpressing OX40, antibody titration
Text: as §1

EC50 (read off the curve) | Binder
~1 nM | B1
